Source: the DeepSol protein solubility set

assay: soluble on expression in E. coli; label from the status in PepcDB or PDB records

Q: Which “soluble on expression in E. coli” value does the source give for “MRVLVKLSGEALSGEGGRGFDPERVNYIVNEIKSAIEEGFKIGIVVGAGNLFRGVELKNLTMTRADQIGLLGTVMNSVYLKDIFERSGLKARIYSQIVNLPDVERVNYDSIESALRENSILIFAGGTSNPFFTTDTAAVLRAQEMRAKLVVKATKVDGVYDKDPKKFPDAKKIPHLTFSEAMKMGLKVMDAEAFALCKKLGITVKVINFFEPGTLLKALKGEDVGSTVVPD” here?
A: soluble

Q: Which “soluble on expression in E. coli” value does the source give for “MAHHHHHHGICSSAPTLGEIWKRKLNQLDAKEFMAYRRRFVVEVDRNEAREALAKGKTNTGHAVSRGTAKLAWIDERGGVELKGTVVDLGCGRGSWSYYAASQPNVREVKAYTLGTSGHEKPRLVETFGWNLITFKSKVDVTKMEPFQADTVLCDIGESNPTAAVEASRTLTVLNVISRWLEYNQGCGFCVKVLNPYSCDVLEALMKMQARFGGGLIRVPLSRNSTHEMYFVSGIKNNIMGNVTAVSRQLLKRMEEQGGERVVPDYKFSTGTRSNL” here?
A: soluble

Q: For “SFRDCAEVFKSGHTTNGIYTLTFPNSTEEIKAYCDMEAGGGGWTIIQRREDGSVDFQRTWKEYKVGFGNPSGEYWLGNEFVSQLTNQQRYVLKIHLKDWEGNEAYSLYEHFYLSSEELNYRIHLKGLTGTAGKISSISQPGNDFSTKDGDNDKCICKCSQMLTGGWWFDACGPSNLNGMYYPQRQNTNKANGIKWAAWKGSGYSLKATTMMIRPADF”, which “soluble on expression in E. coli” value is on record?
A: soluble

Q: Which “soluble on expression in E. coli” value does the source give for “MGSDKIHHHHHHVTSQAPVEVMTDIMTKFTSYIGKRLPTDIKEKLADLREAETNPMANVLFDSMAENQEAADKLNRPSCQDTGVIQYFITAGAKFPLLGELEEILRNATLGATKLGPLRHNAVEAFDEKNTGTNTGSRIPWLDWEIVPNDDGVIIDVYMAGGGCTLPGASTVLMPGQGYEGVVDFVFDVVTSRGINACPPLLIGVGVSTSAETAARLSKKAILRPVGSHHDNANAAKMETLLEDGLNELGIGPQGLTGNSSVMGVNIESSARHPSTIGVAVSTGCWAHRRGRIRFNADLSYEIVSHEGVVL” here?
A: not soluble

Q: With “MANGKSKNTKKDGVDKKKTSKTKKKSNLSISKSQTSVDMNEKDKSKEAKEAKELKEKKAKEEAEKKVVATPKKDASKDQAKKEEDPNKQNEPSGMDVLVKEDGKKTKMDDGYEDFGPGAGAAQ” as the sequence, how does the “soluble on expression in E. coli” value read?
A: not soluble

Q: For “MEPTEKSMLLETTSTTKMETKYEDMLPVMAEKMDVEEFVSELCKGFSLLADPERHLITAESLRRNSGILGIEGMSKEDAQGMVREGDLDGDGALNQTEFCVLMVRLSPEMMEDAETWLEKALTQELCNHNLSSMP”, which “soluble on expression in E. coli” value is on record?
A: soluble

Q: With “MFEEGSEDEVTLMGCTQDEVKPKVGLSQKKWFPKEDIVLVRAWLNTNKDHVIGNDQQCQSFLKQIASYVAISPQLDYLPKREHAKCKQRWSKVNKSVTKFVGCYKTATTHKTSGQSEDDVMKLAYEIYYNDTKKKFNLEHTWRKLRYDQKWCEAATIKGNKNAKRKCVDGY” as the sequence, how does the “soluble on expression in E. coli” value read?
A: soluble

Q: Which “soluble on expression in E. coli” value does the source give for “MQFTLEHAQDVLSGMPDPTFILSEDGIYIDVFGGTDKKAYHDGSNLIGKTLHSVLEKEQADWFIEQINRSLNQDSIVTIEYKMCADSIQGIDANSGPKGDLYYEGKICPLTINYQGRRVVLILTRNISNRHRVETLLRHQSQI” here?
A: not soluble

Q: For “MEVMAQIVLAPHLAGRFDDPDHIRRCIQLYSYRIPANYRRLFDFLFNTEQDFPDCDEFSFFVSVRLNIPTKILNFSEEFGKCVSLHILRKLDVIPPFSKRSQLIILKEVESLKKSIRLCDHMEQCVVAAFQQLLEDEEACIQSVHRLMPVITRSLSQSALEDLINPMIELIQCETSVKLLDRRFLMHVSICYGTHTFLDLFLPPIVEACASMNCDRSVVAKESIMWLAKRYGPVICAKFISSNVLRIMASCYEAFEMVGLEQQPKAVFNVVLQGDETCSRIESLLSEIVLTYSVTFITVQFLPFCVDLIEQFHKRSSVQLEPGLVSVFRIVELSIRSMSDHQLMNYLEEFIIQKVCQLLHSITQKIGTENTRIYANQPFKLMFSTFSEIYETDEELRINLRKRPSENTLFEVPLWMVEDVVDKFAKEWGVPFLSSFCDDPAFLIPFVSNSSSSSSPPASIAHSPPSAFTAYSLGGMSSGNRLFSLSASSPVNSVNSLGGLSFCDSGSLSAVWCARVSAAVCGVDNYRFDHLSLCNYTGHQEKIRKLAAISNENSFVSASSDKTVKLWSIKPELDEIGCQWTYQKHTRPVHDITILADNSIASTDGVLHVWDPFRTTLLAQMEWDSKEGSGGNIMRVENVDRHILSAICSLHSTVKLFDSRVGGWTCELKVSPGPGLTRAITVRDKGNKMAVALSNGTLAILDARNGKINALAQTNSTHTVSVNWLSDTRLLVCDADECGIFLETNPRAHIVRKLQDPSIPKQW”, which “soluble on expression in E. coli” value is on record?
A: not soluble

Q: For “IDIKDVELTADNGKPVYATFFCPKEEIKAAVVIAPALGVDKIFYQDFALWLASYGYLVTTFDYSSMGSADKVHYKESDTTITDWAVFDCKKILEQVSIEIKDKD”, which “soluble on expression in E. coli” value is on record?
A: not soluble

Q: With “MGSDKIHHHHHHMTVSKTKAKLVDVARQLFAKMGVENTTMNDIALASKKGRRTLYTYFKSKDEIYLAVVESELDILSDMMKRVADKDISPDKKIIEMIYTRLDAVKEVVYRNGTLRANFFRDIWRVEKVRKRFDAKEMQLFKSVLKEGQDKGVFHVDDVEMTAALVHYCVKGIEVPYIRGHIGANLDMETRKRYVANIVFGALHRTEINQ” as the sequence, how does the “soluble on expression in E. coli” value read?
A: not soluble

Q: For “SQRRGQLSRRLVNSADRDPSDENSLSRAPAPACTSRGTHVVETTSLKRHSKVLRSQDASGTAESVNSQTPDDEVDHTLWTLVREVSDAEAAFWALRNDSRLLGFVLRSQLLALVHDDSSVTDFLEAAQQPTDVGDVQAEFILCWVPVPGGPAILWRADYQRLIEEQVARRLSELEDPARKAALWGTTREQVERDTHIRAADGSCWLRTLPCPPSVIRALTQGQKALVQQVKRMGRYGRLPLHRAELLRLSRTCFSARFHILDAVGCGTLALDAQNTLSKEPYLCLPEVRTTNIVDSGEIGF”, which “soluble on expression in E. coli” value is on record?
A: soluble

Q: For “MSKIAKTAIISPKAEINKGVEIGEFCVIGDGVKLDEGVKLHNNVTLQGHTFVGKNTEIFPFAVLGTQPQDLKYKGEYSELIIGEDNLIREFCMINPGTEGGIKKTLIGDKNLLMAYVHVAHDCVIGSHCILANGVTLAGHIEIGDYVNIGGLTAIHQFVRIAKGCMIAGKSALGKDVPPYCTVEGNRAFIRGLNRHRMRQLLESKDIDFIYALYKRLFRPIPSLRESAKLELEEHANNPFVKEICSFILESSRGVAYKSSEYSSEEKQEE”, which “soluble on expression in E. coli” value is on record?
A: soluble

Q: With “MNLESITVVLPTRNEAGNIGAFLASLPQAVHLIVVDASEDETPDIIQRERPARTQVLRRRSTITQARQLGAEAALTDWLLFTDADIVFPDGYFDALERVMDAAVVYGPKLSRDRFAAYYRWFGYGQQCSHWLGIPAATGSNLLVRKDALIAVGGFDPALVCNEDSELVWRIKRAGYRIRFEPSLPVYARDHRRLDSGLWRKTCHSVFRCALLYWDLMPARWRGADWGYWSPQQSGRAPGVSRVELEHHHHHH” as the sequence, how does the “soluble on expression in E. coli” value read?
A: not soluble

Q: For “MGSDKIHHHHHHMMQPVINAPEIATAREQQLFNGKNFHVFIYNKTESISGLHQHDYYEFTLVLTGRYFQEINGKRVLLERGDFVFIPLGSHHQSFYEFGATRILNVGISKRFFEQHYLPLLPYCFVASQVYRTNNAFLTYVETVISSLNFRETGLEEFVEMVTFYVINRLRHYREEQVIDDVPQWLKSTVEKMHDKEQFSESALENMVALSAKSQEYLTRATQRYYGKTPMQIINEIRINFAKKQLEMTNYSVTDIAFEAGYSSPSLFIKTFKKLTSFTPKSYRKKLTEFNQ”, which “soluble on expression in E. coli” value is on record?
A: not soluble

Q: For “RENFPGVSWDSLPDELLLGIFSCLCLPELLKVSGVCKRWYRLASDESLWQTLDLTGKNLHPDVTGRLLSQGVIAFRCPRSFMDQPLAEHFSPFRVQHMDLSNSVIEVSTLHGILSQCSKLQNLSLEGLRLSDPIVNTLAKNSNLVRLNLSGCSGFSEFALQTLLSSCSRLDELNLSWCFDFTEKHVQVAVAHVSETITQLNLSGYRKNLQKSDLSTLVRRCPNLVHLDLSDSVMLKNDCFQEFFQLNYLQHLSLSRCYDIIPETLLELGEIPTLKTLQVFGIVPDGTLQLLKEALPHLQINCSHFTTIARPTIGNKKNQEIWGIKCRLTLQKPSCL”, which “soluble on expression in E. coli” value is on record?
A: soluble

Q: Which “soluble on expression in E. coli” value does the source give for “MPHAPQEQIAPLLTTEGWELLASLGPYREADSFSVNAHLRKAGHSPELVAAVLTQSRLRTRAEAKFGEFARQMLFTQAGLEQATRLNVAARHAERFAKAGISHVADLGCGLGADSMAMASMDISVTAVEMDETTAACATINLMPFPHATVVHADATSVELDGMDGVWLDPARRTTSTSGTKRIWDPEAFSPPLSFVERLAATGRAIGVKMGPGIPHDSVPPGCEAQWVSVGGDVTEVTLWFNAVARPGVRRAALVIGNQGAAEITSGADFDGGPVAAVGPVEGFLYEPDGAVIRAGLVADVAGRLGGHLVDEHIAYICAPELHDTPFARAFKVLEVMPYNVKALKAWVKNQGITVLDIKKRGTAVTPEELRKQLLPAKPVKGKDAKTATLVLTRIGEERVAVVVEPVTA” here?
A: soluble

Q: For “MGSDKIHHHHHHMAHLSYSPPRNFDALYRQRVFQSHQAVRMHDAAARELADHSLTWRSGNVDAALYKARARRLTLFSFRYGAEVEIAPRPSEEFIVVHHSIRGAAELSVDGQHMVLPQGRTGWMAPRRNWRMRWEAGCEQLILKIPRDMIEAGGIAPMAPLATLPAGLDTQWLLLVQVLLGASSAPTCAGEPAAWVEHIEQGLASLLRAASSCSLPRESSDRNFVARDPIARLQAMEDYMRERLGAPIGLADLSGAAGVSARVLQQTCQRHRQMSPMELLRDMRLDAVHAWLSEHPSANITETALFYGFGHLGRFAAYYRQRFGESPHQTAQRRCCALS”, which “soluble on expression in E. coli” value is on record?
A: not soluble

Q: With “MGSSGGGGSGGGGVTADIGTGLADALTAPLDHKDKGLKSLTLEDSISQNGTLTLSAQGAEKTYGNGDSLNTGKLKNDKVSRFDFIRQIEVDGQLITLESGEFQVYKQSHSALTALQTEQEQDPEHSEKMVAKRRFRIGDIAGEHTSFDKLPKDVMATYRGTAFGSDDAGGKLTYTIDFAAKQGHGKIEHLKSPELNVDLAVAYIKPDEKHHAVISGSVLYNQDEKGSYSLGIFGEKAQEVAGSAEVETANGIHHIGLAAKQ” as the sequence, how does the “soluble on expression in E. coli” value read?
A: soluble

Q: For “MRAMRLVEIGKPLKLEDIPIPKPKGSQVLIKIEAAGVCHSDVHMRQGRFGNLRIVEDLGVKLPVTLGHEIAGRIEEVGDEVVGYSKGDLVAVNPWEGEGNCYYCRIGEEHLCDSPRWLGINYDGAYAEYVLVPHYKYLYKLRRLSAVEAAPLTCSGVTTYRAVRKASLDPSKTLVVIGAGGGLGTMAIQIAKAVSGATIIGVDVREEALEAAKRAGADYVINASSQDPVSEIRRITQGKGADAVIDLNNSEKTLSIYPYVLAKQGKYVMVGLFGADLKYHAPLITLNEVQFIGSLVGNQSDFLGIMSLAEAGKVKPMVTKTMKLEEANEAIDNLENFKAVGRQVLVP”, which “soluble on expression in E. coli” value is on record?
A: soluble

Q: For “MTTYTTNDFSEIVFGRKSVRVYDETHKISHEEMLTMIQEATTAPSSVNMQPWRFVVVESEAGKEKLKPLIRFNTRQNETSSAMLLIFGDLNCHERGEEIYNQAYASGKMPKEVRDQQLAAIIPHYESLSREQMNDIVKIDASLAAMQFMLVARAHGYETNPIGGFEAEKLAETFGLDQERYVPVMILSVGKGMETGYESVRLAPEKITTFE”, which “soluble on expression in E. coli” value is on record?
A: not soluble

Q: For “PIAQIHILEGRSDEQKETLIREVSEAISRSLDAPLTSVRVIITEMAKGHFGIGGELASKVRR”, which “soluble on expression in E. coli” value is on record?
A: soluble

Q: Which “soluble on expression in E. coli” value does the source give for “MKTSSYLLKAGVDYPTNWDEFVDWFHDEQSCTSYLYALRWPNGFICPSCSSHQSPYQLSNGKLKCHACRFQCSVTSSTLFDKTRTPMKSWFAAVWFITNQKNGVSALGVQRLLGLGSYQTAWSLMHKLRYAMVDPERDKLSGIVEVDETLIGGVIPKSSIKNQQGKRKAIVLVAVELLSPSGFGRIRLRQVESATKEHIHQFIQDVIEPGSTICSDGSQAYKQIDKKGYKHNRMVHLGSSVPAHETMAGVHRVSSLCKRWLLGTYQGAVKAKQLDYYLDEFTFRFNRRKSDSRGLLFYRLLEQAVRLEHHHHHH” here?
A: soluble
